{
  "source": "patent EP3620472A1",
  "binders": {"B1": {"name": "Fab A44V11 (Fab, V domains shown)", "VH": "QMTLKESGPTLVKPTQTLSLTCSVSGDSMTNGYWNWIRQFPGKALEYMGYITYSGSTYYNPSLKGRITITRDTSKNQYYLTLSSVTTVDTATYYCARWHYGSPYYFDYWGQGTTLTVSS", "VL": "DIKMTQSPSSLSASVGDRVTITCKASQDINSYLSWLQQKPGKSPKTLIYRAQRSVEGVPSRFSGSGSGQDYSLTISSLQPEDLGIYYCLQYDEFPPTFGGGTKLEIK"}},
  "key": {"[1]": {"molecular_target": "cynomolgus PAI-1 (cynomolgus (Macaca fascicularis))", "assay": "crystal structure, heavy chain, average of 2 complexes"}, "[2]": {"molecular_target": "recombinant mature human PAI-1 (24-402) stabilized in active conformation (N150H, K154T, Q319L, M354I) (human) (UniProt P05121)", "assay": "crystal structure, light chain, average of 4 complexes"}, "[3]": {"molecular_target": "cynomolgus PAI-1 (cynomolgus (Macaca fascicularis))", "assay": "crystal structure, light chain, average of 2 complexes"}, "[4]": {"molecular_target": "recombinant mature human PAI-1 (24-402) stabilized in active conformation (N150H, K154T, Q319L, M354I) (human) (UniProt P05121)", "assay": "crystal structure, heavy chain, average of 4 complexes"}},
  "data": [
    {"binder": "B1", "values": [
      {"measurement": "surface area of the interaction", "setting": "[1]", "value": 703, "unit": "Å^2"},
      {"measurement": "surface area of the interaction", "setting": "[2]", "value": 372, "unit": "Å^2"},
      {"measurement": "surface area of the interaction", "setting": "[3]", "value": 360, "unit": "Å^2"},
      {"measurement": "surface area of the interaction", "setting": "[4]", "value": 674, "unit": "Å^2"}
    ]}
  ]
}
